B1: PLD5 (parent)
chain: WIVDKQHVYIGSAGLDWQSLGQMK

Variants of: B1
Test: protein stability index of a GFP-peptide fusion (GPS, HEK-293T) (PSI 1-6); higher = more stable
Details: c terminus: a fixed tail appended
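Also: lentivirally expressed fusions sorted by FACS into six bins by GFP to DsRed ratio, PSI derived from sequencing read proportions per bin multiplied by bin number.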

Variant	protein stability index
WIVDKQHVYIGSAGLDWQSTGQMK	2.01
WIVDKQHVYIGSAGLDWQSFGQMK	1.61
WIVDKQHVYIGSAGLDWQSYGQMK	1.97
WIVDKQHVYIGSAGLDWQSSGQMK	1.85
WIVDKQHVYIGSAGLDWQSQGQMK	1.54
WIVDKQHVYIGSAGLDWQSVGQMK	2
WIVDKQHVYIGSAGLDWQSCGQMK	2.05
WIVDKQHVYIGSAGLDWQSAGQMK	1.65
WIVDKQHVYICSAGLDWQSLGQMK	2.07
WIVDKQHVYIYSAGLDWQSLGQMK	3.22
WIVDKQHVYISSAGLDWQSLGQMK	2.22
WIVDKQHVYIKSAGLDWQSLGQMK	1.26
WIDDKQHVYIGSAGLDWQSLGQMK	2.02
WIRDKQHVYIGSAGLDWQSLGQMK	1.52
WIQDKQHVYIGSAGLDWQSLGQMK	1.83
WIHDKQHVYIGSAGLDWQSLGQMK	1.74
WIADKQHVYIGSAGLDWQSLGQMK	1.86
WIFDKQHVYIGSAGLDWQSLGQMK	1.96
WITDKQHVYIGSAGLDWQSLGQMK	1.59
WIIDKQHVYIGSAGLDWQSLGQMK	2.64
WIVDKQHVYIGSAGLDWQSLGQEK	2.11
WIVDKQHVYIGSAGLDWQSLGQLK	2.12
WIVDKQHVYIGSAGLDWQSLGQDK	2.15
WIVDKQHVYIGSAGLDWQSLGQQK	2.09

Variant	protein stability index
WIVDKQHVYIGSAGLDWQSLGQCK	2.21
WIVDKQHVYIGSAGLDWQSLGQTK	2.06
WIVDKQHVYIGSAGLDWQSLGQGK	1.9
WIVDKQHVYWGSAGLDWQSLGQMK	1.96
WIVDKQHVYRGSAGLDWQSLGQMK	1.65
WIVDKQHVYHGSAGLDWQSLGQMK	1.93
WIVDKQHVYGGSAGLDWQSLGQMK	1.64
WIVDKQHVYKGSAGLDWQSLGQMK	2.27
WIVDKQHVYEGSAGLDWQSLGQMK	2.22
WIVDKQHVYQGSAGLDWQSLGQMK	1.83
WIVDKQHVYFGSAGLDWQSLGQMK	2.26
WIVDKQHVYCGSAGLDWQSLGQMK	1.64
WIVDKQHVYIGSAGPDWQSLGQMK	1.99
WIVDKQHVYIGSAGFDWQSLGQMK	1.14
WIVDKQHVYIGSAGGDWQSLGQMK	2.2
WIVDKQHVYIGSAGTDWQSLGQMK	2
WIVDKQHVYIGSAGYDWQSLGQMK	1.67
WIVDKQHVYIGSAGHDWQSLGQMK	1.67
WIVDKQHVYIGSAGIDWQSLGQMK	1.31
WIVDKQHVYIGSAGKDWQSLGQMK	2.02
WIVDKQHVYIGSAGRDWQSLGQMK	1.55
WIVDKQHVYIGSAGLDQQSLGQMK	2.09
WIVDKQHVYIGSAGLDSQSLGQMK	2.36
WIVDKQHVYIGSAGLDCQSLGQMK	1.73

Variant	protein stability index
WIVDKQHVYIGSAGLDGQSLGQMK	2.17
WIVDKQHVYIGSAGLDYQSLGQMK	1.89
WIVDKQHVYIGSAGLDVQSLGQMK	2.24
WIVDKQHVYIGSAGLDTQSLGQMK	1.9
WIVDKQHVYIGSAGLDAQSLGQMK	1.97
WIVDKQHVYIGSAGLAWQSLGQMK	3.8
WIVDKQHVYIGSAGLQWQSLGQMK	1.16
WIVDKQHVYIGSAGLLWQSLGQMK	2.44
WIVDKQHVYIGSAGLSWQSLGQMK	2.26
WIVDKQHVYIGSAGLRWQSLGQMK	1.4
WIVDKQHVYIGSAQLDWQSLGQMK	1.64
WIVDKQHVYIGSACLDWQSLGQMK	2.19
WIVDKQHVYIGSAWLDWQSLGQMK	3.18
WIVDKQHVYIGSAVLDWQSLGQMK	2.6
WIVDKQHVYIGSAKLDWQSLGQMK	2.85
WIVDKQHVYIGSADLDWQSLGQMK	2.12
WIVDKQHVYIGSASLDWQSLGQMK	2.16
WIVDKQHVYIGSAFLDWQSLGQMK	2.02
WIVDKQHVYIGSAALDWQSLGQMK	1.51
WIVDKQHVYIGSAYLDWQSLGQMK	1.79
WIVDKQHVYIGSAMLDWQSLGQMK	1.63
WIVDKQHVYIGSAPLDWQSLGQMK	2.23
WIVDKQHVYIGSARLDWQSLGQMK	2.29
WIVDKQHVYIGSRGLDWQSLGQMK	3.3

Variant	protein stability index
WIVDKQHVYIGSPGLDWQSLGQMK	1.55
WIVDKQHVYIGSLGLDWQSLGQMK	2.44
WIVDKQHVYIGSNGLDWQSLGQMK	2.11
WIVDKQHVYIGSKGLDWQSLGQMK	1.96
WIVDKQHVYIGSMGLDWQSLGQMK	1.9
WIVDKQHVYIGSDGLDWQSLGQMK	1.33
WIVDKQHVYIGSQGLDWQSLGQMK	1.95
WIVDKQHVYIGSYGLDWQSLGQMK	1.98
WIVDKQHVYIGSFGLDWQSLGQMK	2.5
WIVDKQHVYIGSWGLDWQSLGQMK	1.56
WIVDKQHVYIGSIGLDWQSLGQMK	3.29
WIVDKQHVYIGSAGLDWQQLGQMK	1.9
WIVDKQHVYIGSAGLDWQVLGQMK	1.69
WIVDKQHVYIGSAGLDWQRLGQMK	1.83
WIVDKQHVYIGSAGLDWQALGQMK	2.23
WIVDKQHVYIGSAGLDWQKLGQMK	2.22
WIVDKYHVYIGSAGLDWQSLGQMK	1.41
WIVDKSHVYIGSAGLDWQSLGQMK	1.37
WIVDKCHVYIGSAGLDWQSLGQMK	1
WIVDKNHVYIGSAGLDWQSLGQMK	1.58
WIVDKGHVYIGSAGLDWQSLGQMK	3.38
WIVDKLHVYIGSAGLDWQSLGQMK	2.87
WIVDKHHVYIGSAGLDWQSLGQMK	2.1
WIVDKKHVYIGSAGLDWQSLGQMK	1.66

Variant	protein stability index
WIVDKDHVYIGSAGLDWQSLGQMK	1.4
IIVDKQHVYIGSAGLDWQSLGQMK	3.17
QIVDKQHVYIGSAGLDWQSLGQMK	2.5
FIVDKQHVYIGSAGLDWQSLGQMK	2.4
DIVDKQHVYIGSAGLDWQSLGQMK	2.15
MIVDKQHVYIGSAGLDWQSLGQMK	1.43
CIVDKQHVYIGSAGLDWQSLGQMK	1.59
GIVDKQHVYIGSAGLDWQSLGQMK	2.67
YIVDKQHVYIGSAGLDWQSLGQMK	2.23
PIVDKQHVYIGSAGLDWQSLGQMK	2.32
WIVDKQHVYIGSAGLDWQSLGFMK	2.59
WIVDKQHVYIGSAGLDWQSLGSMK	1.97
WIVDKQHVYIGSAGLDWQSLGEMK	1.59
WIVDKQHVYIGSAGLDWQSLGIMK	1.53
WIVDKQHVYIGSAGLDWQSLGKMK	2.32
WIVDKQHVYIGSAGLDWQSLGDMK	1.97
WIVDKQHVYIGSAGLDWQSLGHMK	2.74
WIVDKQHVYIGSAGLDWQSLGAMK	2.11
WIVDKQHVYIGSAGLDWQSLGTMK	2.97
WIVDKQHVYIGSAGLDWQSLGGMK	1.8
WIVDKQHVYIGSAGLDWQSLGNMK	1.67
WIVDKQHVYIGSAGLDWQSLGQMV	2.15
WIVDKQHVYIGSAGLDWQSLGQMM	2.58
WIVDKQHVYIGSAGLDWQSLGQME	2.51

Variant	protein stability index
WIVDKQHVYIGSAGLDWQSLGQMF	2.05
WIVDKQHVYIGSAGLDWQSLGQMC	3.61
WIVDKQHVYIGSAGLDWQSLGQML	2.68
WIVDKQHVYIGSAGLDWQSLKQMK	1.54
WIVDKQHVYIGSAGLDWQSLEQMK	1.25
WIVDKQHVYIGSAGLDWQSLPQMK	1.67
WIVDKQHVYIGSAGLDWQSLQQMK	1.75
WIVDKQHVYIGSAGLDWQSLNQMK	2.41
WIVDKQHVYIGSAGLDWQSLHQMK	2.52
WIVDKQHVYIGNAGLDWQSLGQMK	1.92
WIVDKQHVYIGRAGLDWQSLGQMK	1.6
WIVDKQHVYIGVAGLDWQSLGQMK	2.35
WIVDKQHVYIGAAGLDWQSLGQMK	1.65
WIVDKQHVYIGTAGLDWQSLGQMK	1.18
WIVDKQHVYIGHAGLDWQSLGQMK	1.62
WIVDKQHVYIGYAGLDWQSLGQMK	1.73
WIVDKQHVYIGIAGLDWQSLGQMK	3.48
WIVDKQHVYIGDAGLDWQSLGQMK	1.57
WIVDKQHVYIGEAGLDWQSLGQMK	1.52
WIVDKQHVYIGWAGLDWQSLGQMK	1.92
WIVDKQHVYIGLAGLDWQSLGQMK	2.45
WIVDKQHVYIGSAGLDWNSLGQMK	2.1
WIVDKQHVYIGSAGLDWISLGQMK	2.62
WIVDKQHVYIGSAGLDWHSLGQMK	1.96

Variant	protein stability index
WIVDKQHVYIGSAGLDWKSLGQMK	1.61
WIVDKQHVYIGSAGLDWCSLGQMK	3.36
WIVDKQHVYIGSAGLDWSSLGQMK	2.16
WIVDKQHVYIGSAGLDWPSLGQMK	1.85
WIVDKQHVYIGSAGLDWDSLGQMK	2.42
WIVDKQHVHIGSAGLDWQSLGQMK	1.75
WIVDKQHVTIGSAGLDWQSLGQMK	2.1
WIVDKQHVPIGSAGLDWQSLGQMK	2.48
WIVDKQHVIIGSAGLDWQSLGQMK	1.45
WIVDKQHVNIGSAGLDWQSLGQMK	1.81
WIVDKQHVLIGSAGLDWQSLGQMK	1.64
WIVDKQHVMIGSAGLDWQSLGQMK	1.58
WIVDKQHVKIGSAGLDWQSLGQMK	1.33
WIVDRQHVYIGSAGLDWQSLGQMK	1.94
WIVDYQHVYIGSAGLDWQSLGQMK	1.61
WIVDEQHVYIGSAGLDWQSLGQMK	2.42
WIVDIQHVYIGSAGLDWQSLGQMK	3.22
WIVDTQHVYIGSAGLDWQSLGQMK	2.98
WIVDPQHVYIGSAGLDWQSLGQMK	1.74
WIVDKQHIYIGSAGLDWQSLGQMK	2.31
WIVDKQHTYIGSAGLDWQSLGQMK	1.81
WIVDKQHNYIGSAGLDWQSLGQMK	2.01
WIVDKQHQYIGSAGLDWQSLGQMK	2.11
WIVDKQHAYIGSAGLDWQSLGQMK	1.66

Variant	protein stability index
WIVDKQHPYIGSAGLDWQSLGQMK	2.06
WIVHKQHVYIGSAGLDWQSLGQMK	2.37
WIVMKQHVYIGSAGLDWQSLGQMK	2.12
WIVTKQHVYIGSAGLDWQSLGQMK	4.09
WIVAKQHVYIGSAGLDWQSLGQMK	1.83
WIVEKQHVYIGSAGLDWQSLGQMK	1.39
WIVSKQHVYIGSAGLDWQSLGQMK	2.29
WIVNKQHVYIGSAGLDWQSLGQMK	3.09
WPVDKQHVYIGSAGLDWQSLGQMK	2.65
WMVDKQHVYIGSAGLDWQSLGQMK	1.5
WQVDKQHVYIGSAGLDWQSLGQMK	2.48
WSVDKQHVYIGSAGLDWQSLGQMK	2.08
WFVDKQHVYIGSAGLDWQSLGQMK	1.64
WAVDKQHVYIGSAGLDWQSLGQMK	2.32
WWVDKQHVYIGSAGLDWQSLGQMK	1.86
WLVDKQHVYIGSAGLDWQSLGQMK	1.88
WYVDKQHVYIGSAGLDWQSLGQMK	1.82
WIVDKQKVYIGSAGLDWQSLGQMK	1.54
WIVDKQRVYIGSAGLDWQSLGQMK	2.36
WIVDKQDVYIGSAGLDWQSLGQMK	1.98
